Data on one molecule can be found in PMC4523205, “Human Non-neutralizing HIV-1 Envelope Monoclonal Antibodies Limit the Number of Founder Viruses during SHIV Mucosal Infection in Rhesus Macaques” (PLoS Pathogens, 2015).

For this assay, the target named is T1, Env of SHIV-SF162P3, on virions (SHIV-SF162P3, env from HIV-1 SF162 …, UniProt P19550, strain).
T1 construct: HIV-1 SF162-derived envelope glycoprotein (gp120/gp41) of SHIV-SF162P3, as it stands on virus particles; source: virus stock
As to the kind of experiment: infectious virus capture assay (plate based); antibody mixed with viral stock, immune complexes held on plates coated with anti-human IgG, captured infectious virus read with indicator cells (RLU). The note with it: one partner purified.

B1: 7B2 IgG1_AAA (antibody, V domains shown)
VH: QVQLVQSGGGVFKPGGSLRLSCEASGFTFTEYYMTWVRQAPGKGLEWLAYISKNGEYSKYSPSSNGRFTISRDNAKNSVFLQLDRLSADDTAVYYCARADGLTYFSELLQYIFDLWGQGARVTVSS
VL: DIVLAQSPDSLAVSPGERATIHCKSSQTLLYSSNNRHSIAWYQQRPGQPPKLLLYWASMRLSGVPDRFSGSGSGTDFTLTINNLQAEDVAIYYCHQYSSHPPTFGHGTRVELR
notes: variable region as in the heavy chain of m1 (PDB 4YDV, heavy chain); as the light chain of m1 (PDB 4YDV, light chain); IgG1 with the Fc changes S298A, E333A, K334A; also called 7B2_AAA; source: CHO cells (Catalent, Somerset, NJ), recombinant; copies: 2 + 2
For B1, the binding result is “binds”.
